Experimental data taken from patent US20040072993A1 (UNIVERSITY OF CONNECTICUT HEALTH CENTER, published 2004).

Target: mouse alpha (2) macroglobulin receptor (mouse, UniProt Q91ZX7 20-4545)
Experiment: cell-based or functional assay

mouse alpha (2) macroglobulin receptor, sequence (Q91ZX7 other isoform, or with tags, fused parts or gaps limits assumed): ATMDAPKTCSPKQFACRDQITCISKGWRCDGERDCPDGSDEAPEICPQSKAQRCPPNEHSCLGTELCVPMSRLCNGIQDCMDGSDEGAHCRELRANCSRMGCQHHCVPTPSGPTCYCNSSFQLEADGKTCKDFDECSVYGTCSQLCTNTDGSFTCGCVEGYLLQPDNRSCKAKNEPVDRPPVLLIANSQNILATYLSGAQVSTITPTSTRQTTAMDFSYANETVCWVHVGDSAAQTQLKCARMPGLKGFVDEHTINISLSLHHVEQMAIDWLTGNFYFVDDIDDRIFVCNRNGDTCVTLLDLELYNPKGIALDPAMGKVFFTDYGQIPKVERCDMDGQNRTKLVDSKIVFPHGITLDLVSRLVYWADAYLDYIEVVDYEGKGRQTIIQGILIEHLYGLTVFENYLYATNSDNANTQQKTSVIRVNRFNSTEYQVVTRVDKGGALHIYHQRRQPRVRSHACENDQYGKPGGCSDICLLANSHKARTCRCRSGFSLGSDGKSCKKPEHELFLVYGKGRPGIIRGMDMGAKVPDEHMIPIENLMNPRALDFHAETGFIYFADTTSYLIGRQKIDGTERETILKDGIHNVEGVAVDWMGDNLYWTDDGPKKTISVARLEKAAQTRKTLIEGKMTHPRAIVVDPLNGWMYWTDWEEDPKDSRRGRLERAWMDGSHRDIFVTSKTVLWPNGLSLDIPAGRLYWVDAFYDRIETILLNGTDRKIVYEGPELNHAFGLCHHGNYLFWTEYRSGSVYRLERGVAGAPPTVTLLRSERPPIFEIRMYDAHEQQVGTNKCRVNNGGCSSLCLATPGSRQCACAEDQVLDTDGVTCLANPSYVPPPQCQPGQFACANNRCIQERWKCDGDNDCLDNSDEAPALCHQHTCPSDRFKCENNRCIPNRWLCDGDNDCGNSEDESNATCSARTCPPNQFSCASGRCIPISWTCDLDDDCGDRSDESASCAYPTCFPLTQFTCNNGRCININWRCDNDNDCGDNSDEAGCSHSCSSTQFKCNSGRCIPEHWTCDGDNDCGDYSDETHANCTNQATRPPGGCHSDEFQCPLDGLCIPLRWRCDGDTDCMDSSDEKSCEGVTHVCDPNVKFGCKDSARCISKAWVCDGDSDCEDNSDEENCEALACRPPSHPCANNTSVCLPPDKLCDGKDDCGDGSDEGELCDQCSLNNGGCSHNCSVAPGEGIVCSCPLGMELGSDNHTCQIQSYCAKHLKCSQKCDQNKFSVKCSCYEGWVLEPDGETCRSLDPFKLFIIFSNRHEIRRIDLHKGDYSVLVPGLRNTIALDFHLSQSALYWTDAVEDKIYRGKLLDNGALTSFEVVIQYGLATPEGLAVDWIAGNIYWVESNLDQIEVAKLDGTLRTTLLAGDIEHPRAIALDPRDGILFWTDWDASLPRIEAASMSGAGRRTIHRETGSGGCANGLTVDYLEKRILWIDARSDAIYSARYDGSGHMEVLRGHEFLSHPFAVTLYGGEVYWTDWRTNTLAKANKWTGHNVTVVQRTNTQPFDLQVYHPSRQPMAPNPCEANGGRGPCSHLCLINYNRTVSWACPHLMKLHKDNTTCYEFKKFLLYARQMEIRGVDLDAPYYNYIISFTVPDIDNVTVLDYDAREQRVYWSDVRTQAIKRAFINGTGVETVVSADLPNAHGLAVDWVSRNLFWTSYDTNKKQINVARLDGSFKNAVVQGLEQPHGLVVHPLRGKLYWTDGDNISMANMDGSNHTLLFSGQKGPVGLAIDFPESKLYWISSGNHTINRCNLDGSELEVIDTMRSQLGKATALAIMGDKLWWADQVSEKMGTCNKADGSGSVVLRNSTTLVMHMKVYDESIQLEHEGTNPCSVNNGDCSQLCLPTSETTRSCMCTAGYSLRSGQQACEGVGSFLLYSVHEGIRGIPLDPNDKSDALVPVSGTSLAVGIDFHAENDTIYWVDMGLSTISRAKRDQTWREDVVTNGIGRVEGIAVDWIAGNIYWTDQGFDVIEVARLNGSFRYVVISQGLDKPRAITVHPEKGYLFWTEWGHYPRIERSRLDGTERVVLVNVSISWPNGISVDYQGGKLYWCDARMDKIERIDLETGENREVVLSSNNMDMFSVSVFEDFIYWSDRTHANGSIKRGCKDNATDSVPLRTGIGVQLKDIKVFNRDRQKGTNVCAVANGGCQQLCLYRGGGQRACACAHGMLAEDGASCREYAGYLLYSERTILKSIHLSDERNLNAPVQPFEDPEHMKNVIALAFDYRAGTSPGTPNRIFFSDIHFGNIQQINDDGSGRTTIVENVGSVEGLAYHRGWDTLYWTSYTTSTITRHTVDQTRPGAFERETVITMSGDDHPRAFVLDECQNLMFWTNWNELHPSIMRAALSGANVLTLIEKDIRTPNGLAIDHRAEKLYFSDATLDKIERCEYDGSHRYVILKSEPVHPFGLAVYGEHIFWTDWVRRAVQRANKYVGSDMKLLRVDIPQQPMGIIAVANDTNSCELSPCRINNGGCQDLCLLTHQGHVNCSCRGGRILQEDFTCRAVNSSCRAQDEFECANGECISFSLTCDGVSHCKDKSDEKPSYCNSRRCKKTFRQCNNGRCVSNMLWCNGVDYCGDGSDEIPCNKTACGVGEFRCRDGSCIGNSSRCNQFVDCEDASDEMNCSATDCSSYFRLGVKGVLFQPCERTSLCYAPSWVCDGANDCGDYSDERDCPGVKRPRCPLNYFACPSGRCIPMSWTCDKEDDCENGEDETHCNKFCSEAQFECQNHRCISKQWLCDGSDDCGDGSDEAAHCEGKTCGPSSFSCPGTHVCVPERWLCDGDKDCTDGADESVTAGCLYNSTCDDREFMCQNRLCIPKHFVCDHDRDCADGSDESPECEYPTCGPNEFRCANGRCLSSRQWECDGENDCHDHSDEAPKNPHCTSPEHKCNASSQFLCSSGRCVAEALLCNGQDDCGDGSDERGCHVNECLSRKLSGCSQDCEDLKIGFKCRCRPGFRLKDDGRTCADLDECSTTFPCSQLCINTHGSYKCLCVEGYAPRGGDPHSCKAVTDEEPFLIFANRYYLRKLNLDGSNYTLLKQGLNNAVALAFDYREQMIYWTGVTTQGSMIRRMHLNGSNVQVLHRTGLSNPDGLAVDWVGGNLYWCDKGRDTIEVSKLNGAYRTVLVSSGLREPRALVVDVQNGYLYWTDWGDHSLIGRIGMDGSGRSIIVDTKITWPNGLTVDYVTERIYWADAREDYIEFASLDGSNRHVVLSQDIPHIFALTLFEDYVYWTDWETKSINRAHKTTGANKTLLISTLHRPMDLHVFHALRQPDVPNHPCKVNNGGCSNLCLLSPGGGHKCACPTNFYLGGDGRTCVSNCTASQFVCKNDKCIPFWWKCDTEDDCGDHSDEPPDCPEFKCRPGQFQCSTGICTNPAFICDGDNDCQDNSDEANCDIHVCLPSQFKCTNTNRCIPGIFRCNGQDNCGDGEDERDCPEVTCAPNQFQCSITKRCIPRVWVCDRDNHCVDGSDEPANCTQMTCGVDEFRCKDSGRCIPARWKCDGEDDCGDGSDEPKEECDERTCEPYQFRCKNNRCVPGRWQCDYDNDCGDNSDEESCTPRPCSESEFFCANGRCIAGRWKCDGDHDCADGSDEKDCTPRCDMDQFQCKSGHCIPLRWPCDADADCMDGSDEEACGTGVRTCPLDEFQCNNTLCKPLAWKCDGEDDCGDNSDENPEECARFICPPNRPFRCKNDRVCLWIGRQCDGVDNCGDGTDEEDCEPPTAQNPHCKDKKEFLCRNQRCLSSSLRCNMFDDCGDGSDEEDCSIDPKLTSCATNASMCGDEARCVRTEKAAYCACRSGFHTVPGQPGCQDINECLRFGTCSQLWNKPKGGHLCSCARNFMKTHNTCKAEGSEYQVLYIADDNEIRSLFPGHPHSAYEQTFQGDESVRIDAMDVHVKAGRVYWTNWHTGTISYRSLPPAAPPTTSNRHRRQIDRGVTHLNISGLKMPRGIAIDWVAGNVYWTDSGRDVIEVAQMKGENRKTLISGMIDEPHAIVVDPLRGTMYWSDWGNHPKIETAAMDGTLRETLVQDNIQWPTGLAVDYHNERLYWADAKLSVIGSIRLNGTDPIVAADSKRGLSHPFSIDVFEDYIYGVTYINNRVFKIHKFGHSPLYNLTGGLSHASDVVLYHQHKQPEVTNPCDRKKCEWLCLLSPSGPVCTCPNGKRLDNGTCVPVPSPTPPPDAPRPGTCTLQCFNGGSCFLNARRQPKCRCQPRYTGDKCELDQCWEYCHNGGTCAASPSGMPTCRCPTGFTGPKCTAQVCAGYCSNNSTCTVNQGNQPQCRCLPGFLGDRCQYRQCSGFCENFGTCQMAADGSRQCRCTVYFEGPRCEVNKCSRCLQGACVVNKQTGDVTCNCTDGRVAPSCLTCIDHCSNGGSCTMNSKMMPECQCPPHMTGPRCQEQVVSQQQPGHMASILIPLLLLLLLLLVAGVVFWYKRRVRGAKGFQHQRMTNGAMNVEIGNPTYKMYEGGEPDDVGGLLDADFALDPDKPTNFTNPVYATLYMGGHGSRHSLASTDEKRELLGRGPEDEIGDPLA

Row | Molecule | molar excess of free HSP required to inhibit by 50% the re-presentation of gp96-chaperoned peptides at a gp96 concentration of 40 µg/ml (RAW264.7 cells) (fold molar excess) | molar excess of free HSP required to inhibit by 50% the re-presentation of gp96-chaperoned peptides at a gp96 concentration of 40 µg/ml (RAW264.7 cells)
1 | heat shock protein hsp90 (ligand) | 2 | –
2 | heat shock protein hsp70 (ligand) | 13 | –
3 | heat shock protein gp96 (ligand, UniProt P08113 22-802, looked up) DDEVDVDGTVEEDLGKSREGSRTDDEVVQREEEAIQLDGLNASQIRELREKSEKFAFQAEVNRMMKLIINSLYKNKEIFLRELISNASDALDKIRLISLTDENALAGNEELTVKIKCDKEKNLLHVTDTGVGMTREELVKNLGTIAKSGTSEFLNKMTEAQEDGQSTSELIGQFGVGFYSAFLVADKVIVTSKHNNDTQHIWESDSNEFSVIADPRGNTLGRGTTITLVLKEEASDYLELDTIKNLVRKYSQFINFPIYVWSSKTETVEEPLEEDEAAKEEKEESDDEAAVEEEEEEKKPKTKKVEKTVWDWELMNDIKPIWQRPSKEVEEDEYKAFYKSFSKESDDPMAYIHFTAEGEVTFKSILFVPTSAPRGLFDEYGSKKSDYIKLYVRRVFITDDFHDMMPKYLNFVKGVVDSDDLPLNVSRETLQQHKLLKVIRKKLVRKTLDMIKKIADEKYNDTFWKEFGTNIKLGVIEDHSNRTRLAKLLRFQSSHHSTDITSLDQYVERMKEKQDKIYFMAGSSRKEAESSPFVERLLKKGYEVIYLTEPVDEYCIQALPEFDGKRFQNVAKEGVKFDESEKTKESREATEKEFEPLLNWMKDKALKDKIEKAVVSQRLTESPCALVASQYGWSGNMERIMKAQAYQTGKDISTNYYASQKKTFEINPRHPLIRDMLRRIKEDEDDKTVMDLAVVLFETATLRSGYLLPDTKAYGDRIERMLRLSLNIDPEAQVEEEPEEEPEDTSEDAEDSEQDEGEEMDAGTEEEEEETEKESTEKDEL | – | ~6 fold molar excess
